Test results reported in US20210138066A1, “REMOTE-CONTROLLED IMAGE-GUIDED DRUG DELIVERY VIA ULTRASOUND-MODULATED MOLECULAR DIFFUSION” (California Institute of Technology, priority 2019, published 2021).

Assay: Payloads added to the reservoir: Stokes' diameter
Format: physicochemical

Q: Which “Stokes' Diameter” value does the source give for Adalimumab here?
A: 10 nm
